Reference: IntAct's records for PubMed 31515488

B1: Double-strand-break repair protein rad21 homolog (Homo sapiens), O60216 (parent)
chain: MFYAHFVLSKRGPLAKIWLAAHWDKKLTKAHVFECNLESSVESIISPKVKMALRTSGHLLLGVVRIYHRKAKYLLADCNEAFIKIKMAFRPGVVDLPEENREAAYNAITLPEEFHDFDQPLPDLDDIDVAQQFSLNQSRVEEITMREEVGNISILQENDFGDFGMDDREIMREGSAFEDDDMLVSTTTSNLLLESEQSTSNLNEKINHLEYEDQYKDDNFGEGNDGGILDDKLISNNDGGIFDDPPALSEAGVMLPEQPAHDDMDEDDNVSMGGPDSPDSVDPVEPMPTMTDQTTLVPNEEEAFALEPIDITVKETKAKRKRKLIVDSVKELDSKTIRAQLSDYSDIVTTLDLAPPTKKLMMWKETGGVEKLFSLPAQPLWNNRLLKLFTRCLTPLVPEDLRKRRKGGEADNLDEFLKEFENPEVPREDQQQQHQQRDVIDEPIIEEPSRLQESVMEASRTNIDESAMPPPPPQGVKRKAGQIDPEPVMPPQQVEQMEIPPVELPPEEPPNICQLIPELELLPEKEKEKEKEKEDDEEEEDEDASGGDQDQEERRWNKRTQQMLHGLQRALAKTGAESISLLELCRNTNRKQAAAKFYSFLVLKKQQAIELTQEEPYSDIIATPGPRFHII
B2: Multifunctional procollagen lysine hydroxylase and glycosyltransferase LH3 (Homo sapiens), O60568 (parent)
chain: MTSSGPGPRFLLLLPLLLPPAASASDRPRGRDPVNPEKLLVITVATAETEGYLRFLRSAEFFNYTVRTLGLGEEWRGGDVARTVGGGQKVRWLKKEMEKYADREDMIIMFVDSYDVILAGSPTELLKKFVQSGSRLLFSAESFCWPEWGLAEQYPEVGTGKRFLNSGGFIGFATTIHQIVRQWKYKDDDDDQLFYTRLYLDPGLREKLSLNLDHKSRIFQNLNGALDEVVLKFDRNRVRIRNVAYDTLPIVVHGNGPTKLQLNYLGNYVPNGWTPEGGCGFCNQDRRTLPGGQPPPRVFLAVFVEQPTPFLPRFLQRLLLLDYPPDRVTLFLHNNEVFHEPHIADSWPQLQDHFSAVKLVGPEEALSPGEARDMAMDLCRQDPECEFYFSLDADAVLTNLQTLRILIEENRKVIAPMLSRHGKLWSNFWGALSPDEYYARSEDYVELVQRKRVGVWNVPYISQAYVIRGDTLRMELPQRDVFSGSDTDPDMAFCKSFRDKGIFLHLSNQHEFGRLLATSRYDTEHLHPDLWQIFDNPVDWKEQYIHENYSRALEGEGIVEQPCPDVYWFPLLSEQMCDELVAEMEHYGQWSGGRHEDSRLAGGYENVPTVDIHMKQVGYEDQWLQLLRTYVGPMTESLFPGYHTKARAVMNFVVRYRPDEQPSLRPHHDSSTFTLNVALNHKGLDYEGGGCRFLRYDCVISSPRKGWALLHPGRLTHYHEGLPTTWGTRYIMVSFVDP
partner: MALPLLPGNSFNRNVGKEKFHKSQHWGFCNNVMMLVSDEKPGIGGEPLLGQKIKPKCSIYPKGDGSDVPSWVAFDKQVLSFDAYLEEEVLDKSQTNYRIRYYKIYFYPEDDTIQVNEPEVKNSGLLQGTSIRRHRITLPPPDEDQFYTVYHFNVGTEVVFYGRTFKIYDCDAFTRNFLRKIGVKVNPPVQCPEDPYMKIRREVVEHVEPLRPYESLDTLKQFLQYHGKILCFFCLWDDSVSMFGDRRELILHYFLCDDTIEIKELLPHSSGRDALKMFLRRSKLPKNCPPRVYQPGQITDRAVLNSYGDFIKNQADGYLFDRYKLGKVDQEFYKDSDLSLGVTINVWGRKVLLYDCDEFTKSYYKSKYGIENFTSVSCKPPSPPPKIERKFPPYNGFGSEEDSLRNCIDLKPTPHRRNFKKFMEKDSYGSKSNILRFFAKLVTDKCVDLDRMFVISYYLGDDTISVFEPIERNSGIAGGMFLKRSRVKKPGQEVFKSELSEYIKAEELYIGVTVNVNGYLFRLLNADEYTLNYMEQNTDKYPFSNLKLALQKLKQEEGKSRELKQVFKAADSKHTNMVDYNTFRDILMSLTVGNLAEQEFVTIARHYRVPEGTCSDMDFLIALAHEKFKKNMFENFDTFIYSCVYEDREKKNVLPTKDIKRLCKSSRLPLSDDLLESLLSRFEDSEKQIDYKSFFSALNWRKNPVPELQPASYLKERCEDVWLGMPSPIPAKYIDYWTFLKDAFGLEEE
B3: Isoform 1 of Acetyl-CoA acetyltransferase, cytosolic (Homo sapiens), Q9BWD1-1 (parent)
chain: MNAGSDPVVIVSAARTIIGSFNGALAAVPVQDLGSTVIKEVLKRATVAPEDVSEVIFGHVLAAGCGQNPVRQASVGAGIPYSVPAWSCQMICGSGLKAVCLAVQSIGIGDSSIVVAGGMENMSKAPHLAYLRTGVKIGEMPLTDSILCDGLTDAFHNCHMGITAENVAKKWQVSREDQDKVAVLSQNRTENAQKAGHFDKEIVPVLVSTRKGLIEVKTDEFPRHGSNIEAMSKLKPYFLTDGTGTVTPANASGINDGAAAVVLMKKSEADKRGLTPLARIVSWSQVGVEPSIMGIGPIPAIKQAVTKAGWSLEDVDIFEINEAFAAVSAAIVKELGLNPEKVNIEGGAIALGHPLGASGCRILVTLLHTLERMGRSRGVAALCIGGGMGIAMCVQRE
B4: Histone-lysine N-methyltransferase SMYD1 (Homo sapiens), Q8NB12 (parent)
chain: MTIGRMENVEVFTAEGKGRGLKATKEFWAADIIFAERAYSAVVFDSLVNFVCHTCFKRQEKLHRCGQCKFAHYCDRTCQKDAWLNHKNECSAIKRYGKVPNENIRLAARIMWRVEREGTGLTEGCLVSVDDLQNHVEHFGEEEQKDLRVDVDTFLQYWPPQSQQFSMQYISHIFGVINCNGFTLSDQRGLQAVGVGIFPNLGLVNHDCWPNCTVIFNNGNHEAVKSMFHTQMRIELRALGKISEGEELTVSYIDFLNVSEERKRQLKKQYYFDCTCEHCQKKLKDDLFLGVKDNPKPSQEVVKEMIQFSKDTLEKIDKARSEGLYHEVVKLCRECLEKQEPVFADTNIYMLRMLSIVSEVLSYLQAFEEASFYARRMVDGYMKLYHPNNAQLGMAVMRAGLTNWHAGNIEVGHGMICKAYAILLVTHGPSHPITKDLEAMRVQTEMELRMFRQNEFMYYKMREAALNNQPMQVMAEPSNEPSPALFHKKQ
B5: Alpha-ketoglutarate-dependent dioxygenase alkB homolog 4 (Homo sapiens), Q9NXW9 (parent)
chain: MAAAAAETPEVLRECGCKGIRTCLICERQRGSDPPWELPPAKTYRFIYCSDTGWAVGTEESDFEGWAFPFPGVMLIEDFVTREEEAELVRLMDRDPWKLSQSGRRKQDYGPKVNFRKQKLKTEGFCGLPSFSREVVRRMGLYPGLEGFRPVEQCNLDYCPERGSAIDPHLDDAWLWGERLVSLNLLSPTVLSMCREAPGSLLLCSAPSAAPEALVDSVIAPSRSVLCQEVEVAIPLPARSLLVLTGAARHQWKHAIHRRHIEARRVCVTFRELSAEFGPGGRQQELGQELLRIALSFQGRPV
partner: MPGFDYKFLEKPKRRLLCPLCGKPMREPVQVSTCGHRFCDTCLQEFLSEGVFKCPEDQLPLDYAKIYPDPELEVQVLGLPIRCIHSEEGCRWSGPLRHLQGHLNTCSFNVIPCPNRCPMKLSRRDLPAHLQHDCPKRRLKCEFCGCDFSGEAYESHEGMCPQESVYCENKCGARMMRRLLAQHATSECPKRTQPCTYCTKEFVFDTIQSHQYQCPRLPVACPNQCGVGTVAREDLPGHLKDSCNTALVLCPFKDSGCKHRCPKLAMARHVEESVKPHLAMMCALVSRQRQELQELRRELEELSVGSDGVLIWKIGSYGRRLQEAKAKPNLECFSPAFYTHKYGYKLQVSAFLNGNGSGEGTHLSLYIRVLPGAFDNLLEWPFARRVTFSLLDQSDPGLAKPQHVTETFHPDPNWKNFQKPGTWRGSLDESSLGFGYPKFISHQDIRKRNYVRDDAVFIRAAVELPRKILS
B6: Tyrosine-protein phosphatase non-receptor type 9 (Homo sapiens), P43378 (parent)
chain: MEPATAPRPDMAPELTPEEEQATKQFLEEINKWTVQYNVSPLSWNVAVKFLMARKFDVLRAIELFHSYRETRRKEGIVKLKPHEEPLRSEILSGKFTILNVRDPTGASIALFTARLHHPHKSVQHVVLQALFYLLDRAVDSFETQRNGLVFIYDMCGSNYANFELDLGKKVLNLLKGAFPARLKKVLIVGAPIWFRVPYSIISLLLKDKVRERIQILKTSEVTQHLPRECLPENLGGYVKIDLATWNFQFLPQVNGHPDPFDEIILFSLPPALDWDSVHVPGPHAMTIQELVDYVNARQKQGIYEEYEDIRRENPVGTFHCSMSPGNLEKNRYGDVPCLDQTRVKLTKRSGHTQTDYINASFMDGYKQKNAYIGTQGPLENTYRDFWLMVWEQKVLVIVMTTRFEEGGRRKCGQYWPLEKDSRIRFGFLTVTNLGVENMNHYKKTTLEIHNTEERQKRQVTHFQFLSWPDYGVPSSAASLIDFLRVVRNQQSLAVSNMGARSKGQCPEPPIVVHCSAGIGRTGTFCSLDICLAQLEELGTLNVFQTVSRMRTQRAFSIQTPEQYYFCYKAILEFAEKEGMVSSGQNLLAVESQ
partner: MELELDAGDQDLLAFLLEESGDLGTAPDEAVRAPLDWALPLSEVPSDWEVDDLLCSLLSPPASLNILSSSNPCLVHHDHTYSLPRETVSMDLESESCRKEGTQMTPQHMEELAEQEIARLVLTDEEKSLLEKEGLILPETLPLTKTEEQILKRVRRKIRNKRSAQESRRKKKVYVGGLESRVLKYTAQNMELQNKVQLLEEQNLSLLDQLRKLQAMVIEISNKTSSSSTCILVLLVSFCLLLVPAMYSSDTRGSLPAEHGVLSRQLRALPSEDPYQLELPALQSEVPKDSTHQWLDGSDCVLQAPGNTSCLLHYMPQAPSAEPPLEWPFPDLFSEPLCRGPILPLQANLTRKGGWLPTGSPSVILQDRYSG

Variants of: B1
Details: with fhl3_human FHL3, Q13643
Chain of fhl3_human FHL3, Q13643 (Q13643 whole entry): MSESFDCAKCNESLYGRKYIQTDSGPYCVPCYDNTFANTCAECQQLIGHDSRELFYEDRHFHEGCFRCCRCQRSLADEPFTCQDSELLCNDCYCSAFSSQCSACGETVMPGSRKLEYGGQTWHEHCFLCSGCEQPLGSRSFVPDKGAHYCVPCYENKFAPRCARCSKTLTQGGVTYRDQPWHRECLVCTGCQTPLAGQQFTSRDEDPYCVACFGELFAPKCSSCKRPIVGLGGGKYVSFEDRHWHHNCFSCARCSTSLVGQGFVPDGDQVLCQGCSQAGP

Variant | effect of a mutation on the interaction
I45V | with no effect
D95H | with no effect
M362L | with no effect

Now from value to variant:

effect of a mutation on the interaction | Variant
with no effect | D414E
with no effect | P426S
with no effect | P443L

Variants of: B2
Details: with efhc2_human EFHC2, Q5JST6

effect of a mutation on the interaction | Variant
disrupting interaction strength | A492V

Variants of: B3
Details: with lnx1_human LNX1, Q8TBB1
Chain of lnx1_human LNX1, Q8TBB1 (Q8TBB1 whole entry): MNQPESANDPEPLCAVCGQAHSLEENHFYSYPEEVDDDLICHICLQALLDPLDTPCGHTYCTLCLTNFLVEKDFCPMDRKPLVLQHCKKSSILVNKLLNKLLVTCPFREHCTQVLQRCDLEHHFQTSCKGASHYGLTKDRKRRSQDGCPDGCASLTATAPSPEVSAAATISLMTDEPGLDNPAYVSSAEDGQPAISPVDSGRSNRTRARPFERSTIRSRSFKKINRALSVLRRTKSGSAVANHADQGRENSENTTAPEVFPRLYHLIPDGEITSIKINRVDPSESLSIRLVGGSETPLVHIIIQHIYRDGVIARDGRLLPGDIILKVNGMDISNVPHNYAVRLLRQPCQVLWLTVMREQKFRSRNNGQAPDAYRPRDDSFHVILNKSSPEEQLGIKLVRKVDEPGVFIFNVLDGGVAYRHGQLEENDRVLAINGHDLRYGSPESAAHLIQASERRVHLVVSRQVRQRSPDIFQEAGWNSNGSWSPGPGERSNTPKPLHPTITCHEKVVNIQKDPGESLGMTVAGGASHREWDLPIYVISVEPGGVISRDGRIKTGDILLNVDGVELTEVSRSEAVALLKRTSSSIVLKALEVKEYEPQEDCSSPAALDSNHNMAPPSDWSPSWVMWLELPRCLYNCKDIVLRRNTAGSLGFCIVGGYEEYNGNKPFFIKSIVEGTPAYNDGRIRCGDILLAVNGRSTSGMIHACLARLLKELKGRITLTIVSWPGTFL

effect of a mutation on the interaction | Variant
with no effect | G161S

Variants of: B4
Details: with bhe40_human BHLHE40, O14503
Chain of bhe40_human BHLHE40, O14503 (O14503 whole entry): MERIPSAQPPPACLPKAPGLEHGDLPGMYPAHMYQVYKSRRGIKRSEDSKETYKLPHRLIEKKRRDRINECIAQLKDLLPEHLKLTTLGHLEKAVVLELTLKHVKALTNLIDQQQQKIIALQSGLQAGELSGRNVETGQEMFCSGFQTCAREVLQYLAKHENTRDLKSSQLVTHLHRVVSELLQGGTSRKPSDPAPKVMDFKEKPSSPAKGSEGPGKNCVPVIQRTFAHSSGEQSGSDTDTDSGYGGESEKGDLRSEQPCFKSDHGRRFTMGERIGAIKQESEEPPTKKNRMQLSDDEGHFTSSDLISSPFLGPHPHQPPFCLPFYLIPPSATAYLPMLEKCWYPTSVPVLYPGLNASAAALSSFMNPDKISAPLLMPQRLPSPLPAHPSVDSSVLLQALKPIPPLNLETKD

effect of a mutation on the interaction | Variant
with no effect | R441W

Variants of: B5
Details: with traf4_human TRAF4, Q9BUZ4

effect of a mutation on the interaction | Variant
disrupting interaction strength | R239C

Variants of: B6
Details: with creb3_human CREB3, O43889

effect of a mutation on the interaction | Variant
with no effect | R72Q
